Read-outs that look alike come from different tables or passages of the source.
Format: in vivo
Details: for Edema / Fatigue / Fever / Infusion-related reaction / Musculoskeletal pain / Others (Constitutional) / Weight decreased: Constitutional; for Constipation / Decreased appetite / Diarrhea / Gastritis/GI bleed / Nausea / Others (Gastrointestinal) / Stomatitis / Vomiting: Gastrointestinal; for Any adverse event: worst toxicity grade; for ALT increased / AST increased / Abdominal pain / Bilirubin raised / GGT increased: Hepatic; for Dermatitis / Hepatitis / Others immune-related: Immune-related; for Amylase increased / Anemia / Hypercreatinine / Hyperglycemia / Hypokalemia / Hyponatremia / Hypothyroidism / Leukopenia / Lipase increased / Neutropenia / Thrombocytopenia: Laboratory; for Dry skin / Others (Skin) / Pruritus / Rash, acneiform / Rash, maculopapular / Rash, urticarial: Skin
Procedure: All patients underwent a single treatment of conventional TACE within 28 days of study enrolment. Conventional TACE was performed by supra-selective cannulation of all the branches supplying the tumor. The emulsion was prepared by mixing iodised oil with cisplatin (1 mg/mL) in a 1:1 ratio. A maximum of 60 mL of emulsion was injected. Preparation of the emulsion was followed by embolisation with gelfoam (gelatin granules) pellets of 1 mm diameter mixed with 40 mg of gentamicin. At 28 days (plus or minus 3 days) after the completion of TACE, stereotactic body radiotherapy was delivered to all lesions. Patients were immobilised via a vacuum foam bag (Vac-Lok™; MEDTEC, IA, USA) and active breathing control to reduce liver motion. Imaging was performed on the inhale breath-hold contrast CT. Gross tumor volume was defined as a tumor focus that was visualised by contrast imaging. The clinical target volume was defined as gross tumor volume with expansion to include the area stained with iodised oil. The individualised planning target volume margins were formulated to compensate for respiratory motion and setup errors. Cone beam CT was acquired on board before each treatment. A radiation dose of 27.5-40.0 Gy in five fractions delivered daily was allowed per protocol. The prescription isodose encompassed 95% of the planning target volume. The final dose was determined such that a maximum tumoricidal dose could be delivered to tumors while respecting the tolerance dose of the organ at risk (Table 3). The radiotherapy toxicity was assessed by CTCAE; version 4.01.
All patients underwent baseline contrast-enhanced MRI of the liver and CT of the thorax. Treatment response evaluation was assessed with MRI after cycle 4, cycle 8, and cycle 12 of avelumab and every 12 weeks thereafter (plus or minus 7 days). Radiological imaging was reported using the modified Response Evaluation Criteria in Solid Tumors (mRECIST). A CT of the thorax was done every 26 weeks or at the time of radiological or clinical evidence of disease progression according to mRECIST criteria. All patients were discussed in a multidisciplinary team board meeting of surgeons specializing in liver transplantation and liver surgery, clinical oncologists, interventional radiologists, and diagnostic radiologists. This meeting was held once every 2 weeks to decide resectability and treatment failure. All patients underwent complete tumor staging to exclude distant metastasis before surgery. A board-certified radiologist conducted an independent blinded review in addition to the investigator review. Safety assessments were documented throughout the treatment period. Adverse events were graded according to the US National Cancer Institute Common Terminology Criteria for Adverse Events (CTCAE; version 4.01). The frequency, duration, and severity of adverse events were recorded.
The primary endpoint was the percentage of patients deemed to be amenable to curative treatment after conversion therapy. Amenability for curative treatment was fulfilled when one of the following criteria was met: either a sustained complete response or sustained partial response achieved for at least 2 months and if curative treatment could be performed (based on investigator's review). […] Post-hoc analyses included radiological response according to immune RECIST, correlation of clinical outcomes with BCLC stage, albumin-bilirubin score, radiological assessment criteria, biomarkers, and median time to treatment response.

avelumab
Edema (Grade 1-2): 0 (0%) number of patients (%)
Fatigue (Grade 1-2): 9 (27%) number of patients (%)
Fever (Grade 1-2): 1 (3%) number of patients (%)
Infusion-related reaction (Grade 1-2): 7 (21%) number of patients (%)
Musculoskeletal pain (Grade 1-2): 0 (0%) number of patients (%)
Others (Constitutional) (Grade 1-2): 9 (27%) number of patients (%)
Weight decreased (Grade 1-2): 7 (21%) number of patients (%)
Edema (Grade 3): 0 (0%) number of patients (%)
Fatigue (Grade 3): 0 (0%) number of patients (%)
Fever (Grade 3): 0 (0%) number of patients (%)
Infusion-related reaction (Grade 3): 0 (0%) number of patients (%)
Musculoskeletal pain (Grade 3): 0 (0%) number of patients (%)
Others (Constitutional) (Grade 3): 0 (0%) number of patients (%)
Weight decreased (Grade 3): 0 (0%) number of patients (%)
Edema (Grade 4): 0 (0%) number of patients (%)
Fatigue (Grade 4): 0 (0%) number of patients (%)
Fever (Grade 4): 0 (0%) number of patients (%)
Infusion-related reaction (Grade 4): 0 (0%) number of patients (%)
Musculoskeletal pain (Grade 4): 0 (0%) number of patients (%)
Others (Constitutional) (Grade 4): 0 (0%) number of patients (%)
Weight decreased (Grade 4): 0 (0%) number of patients (%)
Edema (Grade 5): 0 (0%) number of patients (%)
Fatigue (Grade 5): 0 (0%) number of patients (%)
Fever (Grade 5): 0 (0%) number of patients (%)
Infusion-related reaction (Grade 5): 0 (0%) number of patients (%)
Musculoskeletal pain (Grade 5): 0 (0%) number of patients (%)
Others (Constitutional) (Grade 5): 0 (0%) number of patients (%)
Weight decreased (Grade 5): 0 (0%) number of patients (%)
Constipation (Grade 1-2): 2 (6%) number of patients (%)
Decreased appetite (Grade 1-2): 4 (12%) number of patients (%)
Diarrhea (Grade 1-2): 4 (12%) number of patients (%)
Gastritis/GI bleed (Grade 1-2): 0 (0%) number of patients (%)
Nausea (Grade 1-2): 2 (6%) number of patients (%)
Others (Gastrointestinal) (Grade 1-2): 3 (9%) number of patients (%)
Stomatitis (Grade 1-2): 0 (0%) number of patients (%)
Vomiting (Grade 1-2): 1 (3%) number of patients (%)
Constipation (Grade 3): 0 (0%) number of patients (%)
Decreased appetite (Grade 3): 0 (0%) number of patients (%)
Diarrhea (Grade 3): 0 (0%) number of patients (%)
Gastritis/GI bleed (Grade 3): 0 (0%) number of patients (%)
Nausea (Grade 3): 0 (0%) number of patients (%)
Others (Gastrointestinal) (Grade 3): 0 (0%) number of patients (%)
Stomatitis (Grade 3): 0 (0%) number of patients (%)
Vomiting (Grade 3): 0 (0%) number of patients (%)
Constipation (Grade 4): 0 (0%) number of patients (%)
Decreased appetite (Grade 4): 0 (0%) number of patients (%)
Diarrhea (Grade 4): 0 (0%) number of patients (%)
Gastritis/GI bleed (Grade 4): 0 (0%) number of patients (%)
Nausea (Grade 4): 0 (0%) number of patients (%)
Others (Gastrointestinal) (Grade 4): 0 (0%) number of patients (%)
Stomatitis (Grade 4): 0 (0%) number of patients (%)
Vomiting (Grade 4): 0 (0%) number of patients (%)
Constipation (Grade 5): 0 (0%) number of patients (%)
Decreased appetite (Grade 5): 0 (0%) number of patients (%)
Diarrhea (Grade 5): 0 (0%) number of patients (%)
Gastritis/GI bleed (Grade 5): 0 (0%) number of patients (%)
Nausea (Grade 5): 0 (0%) number of patients (%)
Others (Gastrointestinal) (Grade 5): 0 (0%) number of patients (%)
Stomatitis (Grade 5): 0 (0%) number of patients (%)
Vomiting (Grade 5): 0 (0%) number of patients (%)
Adverse event, Lead to discontinuation (Grade 1-2): 0 (0%) number of patients (%)
Any adverse event (Grade 1-2): 27 (82%) number of patients (%)
Adverse event, Lead to discontinuation (Grade 3): 1 (3%) number of patients (%)
Any adverse event (Grade 3): 4 (12%) number of patients (%)
Adverse event, Lead to discontinuation (Grade 4): 1 (3%) number of patients (%)
Any adverse event (Grade 4): 1 (3%) number of patients (%)
Adverse event, Lead to discontinuation (Grade 5): 0 (0%) number of patients (%)
Any adverse event (Grade 5): 0 (0%) number of patients (%)
ALT increased (Grade 1-2): 7 (21%) number of patients (%)
AST increased (Grade 1-2): 6 (18%) number of patients (%)
Abdominal pain (Grade 1-2): 1 (3%) number of patients (%)
Bilirubin raised (Grade 1-2): 7 (21%) number of patients (%)
GGT increased (Grade 1-2): 2 (6%) number of patients (%)
ALT increased (Grade 3): 2 (6%) number of patients (%)
AST increased (Grade 3): 1 (3%) number of patients (%)
Abdominal pain (Grade 3): 0 (0%) number of patients (%)
Bilirubin raised (Grade 3): 0 (0%) number of patients (%)
GGT increased (Grade 3): 0 (0%) number of patients (%)
ALT increased (Grade 4): 0 (0%) number of patients (%)
AST increased (Grade 4): 1 (3%) number of patients (%)
Abdominal pain (Grade 4): 0 (0%) number of patients (%)
Bilirubin raised (Grade 4): 0 (0%) number of patients (%)
GGT increased (Grade 4): 0 (0%) number of patients (%)
ALT increased (Grade 5): 0 (0%) number of patients (%)
AST increased (Grade 5): 0 (0%) number of patients (%)
Abdominal pain (Grade 5): 0 (0%) number of patients (%)
Bilirubin raised (Grade 5): 0 (0%) number of patients (%)
GGT increased (Grade 5): 0 (0%) number of patients (%)
Dermatitis (Grade 1-2): 2 (6%) number of patients (%)
Hepatitis (Grade 1-2): 2 (6%) number of patients (%)
Others immune-related (Grade 1-2): 5 (15%) number of patients (%)
Dermatitis (Grade 3): 2 (6%) number of patients (%)
Hepatitis (Grade 3): 3 (9%) number of patients (%)
Others immune-related (Grade 3): 0 (0%) number of patients (%)
Dermatitis (Grade 4): 0 (0%) number of patients (%)
Hepatitis (Grade 4): 0 (0%) number of patients (%)
Others immune-related (Grade 4): 0 (0%) number of patients (%)
Dermatitis (Grade 5): 0 (0%) number of patients (%)
Hepatitis (Grade 5): 0 (0%) number of patients (%)
Others immune-related (Grade 5): 0 (0%) number of patients (%)
Amylase increased (Grade 1-2): 0 (0%) number of patients (%)
Anemia (Grade 1-2): 5 (15%) number of patients (%)
Hypercreatinine (Grade 1-2): 3 (9%) number of patients (%)
Hyperglycemia (Grade 1-2): 1 (3%) number of patients (%)
Hypokalemia (Grade 1-2): 6 (18%) number of patients (%)
Hyponatremia (Grade 1-2): 4 (12%) number of patients (%)
Hypothyroidism (Grade 1-2): 5 (15%) number of patients (%)
Leukopenia (Grade 1-2): 6 (18%) number of patients (%)
Lipase increased (Grade 1-2): 0 (0%) number of patients (%)
Neutropenia (Grade 1-2): 1 (3%) number of patients (%)
Thrombocytopenia (Grade 1-2): 4 (12%) number of patients (%)
Hypothyroidism (Grade 1-2, first listing): 0 (0%) number of patients (%)
Amylase increased (Grade 3): 0 (0%) number of patients (%)
Anemia (Grade 3): 0 (0%) number of patients (%)
Hypercreatinine (Grade 3): 0 (0%) number of patients (%)
Hyperglycemia (Grade 3): 0 (0%) number of patients (%)
Hypokalemia (Grade 3): 0 (0%) number of patients (%)
Hyponatremia (Grade 3): 0 (0%) number of patients (%)
Hypothyroidism (Grade 3): 0 (0%) number of patients (%)
Leukopenia (Grade 3): 0 (0%) number of patients (%)
Lipase increased (Grade 3): 0 (0%) number of patients (%)
Neutropenia (Grade 3): 0 (0%) number of patients (%)
Thrombocytopenia (Grade 3): 0 (0%) number of patients (%)
Hypothyroidism (Grade 3, first listing): 0 (0%) number of patients (%)
Amylase increased (Grade 4): 0 (0%) number of patients (%)
Anemia (Grade 4): 0 (0%) number of patients (%)
Hypercreatinine (Grade 4): 0 (0%) number of patients (%)
Hyperglycemia (Grade 4): 0 (0%) number of patients (%)
Hypokalemia (Grade 4): 0 (0%) number of patients (%)
Hyponatremia (Grade 4): 0 (0%) number of patients (%)
Hypothyroidism (Grade 4): 0 (0%) number of patients (%)
Leukopenia (Grade 4): 0 (0%) number of patients (%)
Lipase increased (Grade 4): 0 (0%) number of patients (%)
Neutropenia (Grade 4): 0 (0%) number of patients (%)
Thrombocytopenia (Grade 4): 0 (0%) number of patients (%)
Hypothyroidism (Grade 4, first listing): 0 (0%) number of patients (%)
Amylase increased (Grade 5): 0 (0%) number of patients (%)
Anemia (Grade 5): 0 (0%) number of patients (%)
Hypercreatinine (Grade 5): 0 (0%) number of patients (%)
Hyperglycemia (Grade 5): 0 (0%) number of patients (%)
Hypokalemia (Grade 5): 0 (0%) number of patients (%)
Hyponatremia (Grade 5): 0 (0%) number of patients (%)
Hypothyroidism (Grade 5): 0 (0%) number of patients (%)
Leukopenia (Grade 5): 0 (0%) number of patients (%)
Lipase increased (Grade 5): 0 (0%) number of patients (%)
Neutropenia (Grade 5): 0 (0%) number of patients (%)
Thrombocytopenia (Grade 5): 0 (0%) number of patients (%)
Hypothyroidism (Grade 5, first listing): 0 (0%) number of patients (%)
Dry skin (Grade 1-2): 6 (9%) number of patients (%)
Others (Skin) (Grade 1-2): 0 (0%) number of patients (%)
Pruritus (Grade 1-2): 8 (24%) number of patients (%)
Rash, acneiform (Grade 1-2): 0 (0%) number of patients (%)
Rash, maculopapular (Grade 1-2): 6 (9%) number of patients (%)
Rash, urticarial (Grade 1-2): 2 (6%) number of patients (%)
Dry skin (Grade 3): 0 (0%) number of patients (%)
Others (Skin) (Grade 3): 0 (0%) number of patients (%)
Pruritus (Grade 3): 1 (3%) number of patients (%)
Rash, acneiform (Grade 3): 0 (0%) number of patients (%)
Rash, maculopapular (Grade 3): 1 (3%) number of patients (%)
Rash, urticarial (Grade 3): 1 (3%) number of patients (%)
Dry skin (Grade 4): 0 (0%) number of patients (%)
Others (Skin) (Grade 4): 0 (0%) number of patients (%)
Pruritus (Grade 4): 0 (0%) number of patients (%)
Rash, acneiform (Grade 4): 0 (0%) number of patients (%)
Rash, maculopapular (Grade 4): 0 (0%) number of patients (%)
Rash, urticarial (Grade 4): 0 (0%) number of patients (%)
Dry skin (Grade 5): 0 (0%) number of patients (%)
Others (Skin) (Grade 5): 0 (0%) number of patients (%)
Pruritus (Grade 5): 0 (0%) number of patients (%)
Rash, acneiform (Grade 5): 0 (0%) number of patients (%)
Rash, maculopapular (Grade 5): 0 (0%) number of patients (%)
Rash, urticarial (Grade 5): 0 (0%) number of patients (%)
Permanent discontinuation due to immune-related adverse events (avelumab 10 mg/kg every 2 weeks after TACE and SBRT): two
Median duration of dose interruption (seven patients with interruption): 4 weeks
